# Results reported in the supplement of paper PMC10567573.
# B1: PPEF2 (parent)
# chain: DHSGFISLDEFRQTWKLFSSHMNI
# Variants of: B1
# Experiment: protein stability index of a GFP-peptide fusion (GPS, HEK-293T) (PSI 1-6); higher = more stable
# Conditions: c terminus: a fixed tail appended
# 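Also: lentivirally expressed fusions sorted by FACS into six bins by GFP to DsRed ratio, PSI derived from sequencing read proportions per bin multiplied by bin number.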
row,Variant,protein stability index
1,DHSGFESLDEFRQTWKLFSSHMNI [I6E],1.66
2,DHSGFISLDEFRQTWKLFSDHMNI [S20D],2.15
3,DYSGFISLDEFRQTWKLFSSHMNI [H2Y],2.11
4,DHSGFISMDEFRQTWKLFSSHMNI [L8M],1.88
5,DHSGFISLDPFRQTWKLFSSHMNI [E10P],2.26
6,DHSGFIPLDEFRQTWKLFSSHMNI [S7P],1.44
7,DHSGFYSLDEFRQTWKLFSSHMNI [I6Y],1.89
8,DHSGEISLDEFRQTWKLFSSHMNI [F5E],1.65
9,DHSGFISLDECRQTWKLFSSHMNI [F11C],1.94
10,DHSGFIFLDEFRQTWKLFSSHMNI [S7F],2.52
11,DHSGFISLDEFRQTWKLFSQHMNI [S20Q],1.83
12,DHSGFISTDEFRQTWKLFSSHMNI [L8T],2.09
13,DHSGFISLDEFRQTWLLFSSHMNI [K16L],3.93
14,DHSGFISLPEFRQTWKLFSSHMNI [D9P],1.21
15,DHSGFISLDFFRQTWKLFSSHMNI [E10F],1.72
16,DHSGFISLDEFRQTWILFSSHMNI [K16I],3.37
17,DHSGFISLDEFRQTWKLFSSHMGI [N23G],1.73
18,DHSGFWSLDEFRQTWKLFSSHMNI [I6W],1.82
19,DHSGFISLDEFRQTWKLFSSIMNI [H21I],2.54
20,DHSGFISLDEFCQTWKLFSSHMNI [R12C],1.74
21,YHSGFISLDEFRQTWKLFSSHMNI [D1Y],2.58
22,DHSGFISLDEFRQTWKLFSSHMNP [I24P],1.87
23,DHSGFISLDEFRQTWKLFSSHNNI [M22N],1.62
24,DHSGFISLDEFRQTWKLFSYHMNI [S20Y],2.47

row,Variant,protein stability index
1,DHSGFISLDNFRQTWKLFSSHMNI [E10N],2.85
2,DHSGFISLDEFRQTWKLFSSHMNV [I24V],2.01
3,DHSGFISLDEFNQTWKLFSSHMNI [R12N],1.81
4,DHKGFISLDEFRQTWKLFSSHMNI [S3K],2.47
5,DHSGFISLDEFRQTWKLFSSHMQI [N23Q],1.86
6,KHSGFISLDEFRQTWKLFSSHMNI [D1K],2.64
7,DHSCFISLDEFRQTWKLFSSHMNI [G4C],2.41
8,DHSGFISLDHFRQTWKLFSSHMNI [E10H],2.25
9,DHSGFISLDEFRQTWKLFSSHMFI [N23F],3.35
10,DHSGFISLDEKRQTWKLFSSHMNI [F11K],1.64
11,DHSGFISLDEFRQTSKLFSSHMNI [W15S],1.81
12,DHSGFISLDEFRQTWKVFSSHMNI [L17V],1.36
13,DHSGFISLDEFRQTWQLFSSHMNI [K16Q],1.74
14,DHSGFISLDEFRQTWKLFSRHMNI [S20R],2.16
15,DHSGFISLDEFRQTWKLFSSSMNI [H21S],1.86
16,DHSGFISLDEFRQTWKLWSSHMNI [F18W],1.87
17,DHSGPISLDEFRQTWKLFSSHMNI [F5P],2.12
18,DHSGFISLDEFRQTWKLFSSAMNI [H21A],1.63
19,DHSGFSSLDEFRQTWKLFSSHMNI [I6S],1.75
20,DHSGFISLDEFRQTWKLFSSHINI [M22I],2.02
21,DHSGFISLDEFRNTWKLFSSHMNI [Q13N],2.65
22,DHSGFISLDEFFQTWKLFSSHMNI [R12F],3.28
23,DHSGFISHDEFRQTWKLFSSHMNI [L8H],2.44
